# Assay results from patent US20260116963A1 (GENERATE BIOMEDICINES, published 2026).
# Substitutions are numbered along the chain they refer to.
# B1: NB-13 (antibody, human IgG4 S228P, kappa)
# heavy: QVTLRESGPALVKPTQTLTLTCTVSGFSLSAYSVNWIRQPPGKALEWLAMIWGDGKIVYNSALKSRLTISKDTSKNQVVLTMTNMDPVDTATYYCAGDGYYPYAMDNWGQGSLVTVSSASTKGPSVFPLAPCSRSTSESTAALGCLVKDYFPEPVTVSWNSGALTSGVHTFPAVLQSSGLYSLSSVVTVPSSSLGTKTYTCNVDHKPSNTKVDKRVESKYGPPCPPCPAPEFLGGPSVFLFPPKPKDTLYITREPEVTCVVVDVSQEDPEVQFNWYVDGVEVHNAKTKPREEQFNSTYRVVSVLTVLHQDWLNGKEYKCKVSNKGLPSSIEKTISKAKGQPREPQVYTLPPSQEEMTKNQVSLTCLVKGFYPSDIAVEWESNGQPENNYKTTPPVLDSDGSFFLYSRLTVDKSRWQEGNVFSCSVMHEALHNHYTQKSLSLSLGK
# light: DIVMTQSPDSLSVSLGERATINCRASKSVDSYGNSFMHWYQQKPGQPPKLLIYLASNLESGVPDRFSGSGSGTDFTLTISSLQAEDVAVYYCQQNNEDPRTFGGGTKVEIKRTVAAPSVFIFPPSDEQLKSGTASVVCLLNNFYPREAKVQWKVDNALQSGNSQESVTEQDSKDSTYSLSSTLTLSKADYEKHKVYACEVTHQGLSSPVTKSFNRGEC
# B2: NB-3 (antibody, human IgG4 S228P, kappa, V domains shown)
# VH: QVTLRESGPALVKPTQTLTLTCTVSGASLSSYSVNWIRQPPGKALEWLAMIWGDGKIVYNSALKSRLTISKDTSKNQVVLTMTNMDPVDTATYYCAGEGYYPYAMDVWGQGSLVTVSS
# VL: DIVMTQSPDSLSVSLGERATINCRASKSVDSYGNSYMHWYQQKPGQPPKLLIYLASNLESGVPDRFSGSGSGTDFTLTISSLQAEDVAVYYCQQNNEDPRTFGGGTKVEIKR
# B3: NB-12 (antibody, human IgG4 S228P, kappa, V domains shown)
# VH: B2 VH with S31A, E98D, Y103W, V107N
# VL: B2 VL with K27Q, Y36F
# B4: NB-9 (antibody, human IgG4 S228P, kappa, V domains shown)
# VH: B2 VH with A27F, S31A, D54S, E98D, V107N
# VL: B2 VL with Y36F
# B5: NB-6 (antibody, human IgG4 S228P, kappa, V domains shown)
# VH: B2 VH with S31A, W52S, E98D, V107N
# VL: B2 VL with Y36F
# B6: NB-10 (antibody, human IgG4 S228P, kappa, V domains shown)
# VH: B2 VH with S31A, E98D, V107N
# VL: B2 VL with S31Y, Y36F, R100L
# B7: NB-1 (antibody, human IgG4 S228P, kappa, V domains shown)
# VH: B2 VH with S31A, E98L, V107L
# VL: B2 VL with Y36F
# B8: NB-4 (antibody, human IgG4 S228P, kappa, V domains shown)
# VH: B2 VH with S31A, E98D, V107N
# VL: B2 VL with Y36F, R100L
# B9: NB-11 (antibody, human IgG4 S228P, kappa, V domains shown)
# VH: B2 VH with S31A, K56T, E98D, Y101F, V107N
# VL: B2 VL with N34H, Y36F
# B10: NB-2 (antibody, human IgG4 S228P, kappa, V domains shown)
# VH: B2 VH with A27F, S31A, E98L, V107N
# VL: B2 VL with Y36F
# B11: NB-5 (antibody, human IgG4 S228P, kappa, V domains shown)
# VH: B2 VH with S31A, D54S, E98D, V107N
# VL: B2 VL with Y36F
# B12: NB-7 (antibody, human IgG4 S228P, kappa, V domains shown)
# VH: B2 VH with A27F, S31A, E98D, V107N
# VL: B2 VL with Y36F, R100L
# B13: NB-8 (antibody, human IgG4 S228P, kappa, V domains shown)
# VH: B2 VH with S31A, V107Y
# VL: B2 VL with Y36F
# B14: AbH (antibody, human IgG1, kappa, V domains shown)
# VH: B2 VH with S31R, E98D, V107N
# VL: B2 VL with L54R
# B15: AbK (antibody, human IgG1, kappa, V domains shown)
# VH: B2 VH with A27S, S31R, E98D, V107N
# VL: B2 VL with K27Q
# B16: AbL (antibody, human IgG1, kappa, V domains shown)
# VH: B2 VH with A27F, S31R, E98D, V107N
# VL: B2 VL with N34R
# B17: AbI (antibody, human IgG1, kappa, V domains shown)
# VH: B2 VH with S31R, E98D, Y100F, V107N
# VL: B2 VL
# B18: AbJ (antibody, human IgG1, kappa, V domains shown)
# VH: B2 VH with S31A, G55R, I57K, E98D, Y101F, V107L
# VL: B2 VL with N34H, L54W
# B19: AbD (antibody, human IgG1, kappa, V domains shown)
# VH: B2 VH with A27S, S31A, I57V, E98D, Y101F, V107N
# VL: B2 VL
# B20: AbF (antibody, human IgG1, kappa, V domains shown)
# VH: B2 VH with S31R, G55A, E98D, Y101F, V107N
# VL: B2 VL with K27E
# B21: AbE (antibody, human IgG1, kappa, V domains shown)
# VH: B2 VH with S31A, E98D, Y101F, V107N
# VL: B2 VL with N34H, L54W
# B22: AbA (antibody, human IgG1, kappa, V domains shown)
# VH: B2 VH with A27F, S31A, E98D, V107N
# VL: B2 VL with N34R
# B23: AbB (antibody, human IgG1, kappa, V domains shown)
# VH: B2 VH with S31A, E98D, V107N
# VL: B2 VL with S31Y, N34H
# B24: AbC (antibody, human IgG1, kappa, V domains shown)
# VH: B2 VH with A27F, S31A, E98D, V107Y
# VL: B2 VL with S31Y
# Target: T1, human IL-13 (human, UniProt P35225 25-146, limits assumed)
# T1 construct: The KinExA antigen was detected with an anti-HIS IgG, so it probably carried a HIS tag; also called Interleukin-13; hIL-13
# T1 sequence (P35225 other isoform, or with tags, fused parts or gaps limits assumed): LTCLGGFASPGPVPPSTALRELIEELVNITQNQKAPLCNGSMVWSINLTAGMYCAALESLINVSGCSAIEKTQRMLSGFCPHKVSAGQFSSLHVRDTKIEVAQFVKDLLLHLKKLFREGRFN
# Test: SPR array (Carterra LSA), antibody captured on anti-human pAb HC30M chip, human IL-13 0.05-100 nM as analyte, 25 C, 1:1 fit
Kd [nM],koff [s⁻¹],kon [M⁻¹ s⁻¹],Binder
< 0.1,–,–,B1
1.89,0.00047,290000,B2
6.09,0.000711,117000,B3
2.41,0.000734,305000,B4
3.34,0.000855,258000,B5
13.6,0.000805,62000,B6
5.21,0.000601,117000,B7
13.6,0.000987,74000,B8
0.97,0.000135,139000,B9
6.67,0.000618,93000,B10
4.24,0.00127,303000,B11
8.35,0.000827,100000,B12
2.56,0.000674,259000,B13

# Target: T1, human IL-13
# Test: SPR (Biacore 8K+), antibody captured, human IL-13 as analyte, 37 C; less than 5% decay in 5,400 s, KD estimated
row,Kd [nM],Binder
1,< 0.015,B14
2,< 0.015,B15
3,< 0.015,B16
4,< 0.015,B17
5,< 0.015,B18
6,< 0.015,B19
7,< 0.015,B20
8,< 0.015,B21

# Target: T1, human IL-13
# Test: cell-based or functional assay
row,"IC50, HEK-Blue IL-13Ra1/IL-4Ra STAT6-SEAP reporter assay [mg/L]",Binder
1,0.123,B22
2,0.132,B23
3,0.118,B24
4,0.107,B14
5,0.172,B15
6,0.32,B16
7,0.223,B17
8,0.167,B18
9,0.161,B19
10,0.126,B20
11,0.118,B21

# Target: T1, human IL-13
# Test: SPR (Biacore 8K+), antibody captured on anti-human pAb CM4 chip, human IL-13 0.6-10 nM as analyte, 37 C, 1:1 fit
Kd [nM],koff [s⁻¹],kon [M⁻¹ s⁻¹],Binder
0.0162,1.11e-05,847000,B22
0.0215,1.02e-05,552000,B23
0.0273,2.98e-05,1.09e+06,B24
